Data as given in the nanobody polyreactivity screen of Harvey et al. (2022).

experiment: yeast display, Sf9 membrane polyspecificity reagent, FACS + sequencing; frameworks hold sequencing errors
How it was run: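 Nanobodies from a synthetic yeast display library (Saccharomyces cerevisiae BJ5465), induced 36–48 hours with galactose, were stained 1 hour at 4 °C with 10% biotinylated, detergent-solubilized Sf9 membrane reagent, enriched on streptavidin microbeads, then FACS-sorted. Anti-HA (expression) and streptavidin (reagent binding) fluorescence set low and high (top ~1%) gates. Polyreactivity labels come from the gate of origin. Genes were colony-PCR amplified, MiSeq 2 × 250 sequenced and filtered by CDR length.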

| Sequence | polyreactivity (PSR sort gate) |
| --- | --- |
| QVQLVESGGGLVQAGGILRLSCAASGSIFGSYAMGWYRQAPGKERELVAGITYRGSSTYYADSVKGRFTISRDNAKNTVYLQMNSLKPEDTAVYYCAADPVFDEYDYWGQGTQVTVSS | low polyreactivity |
| QVQLVESGGCLVQAGGSLRLSCAASGLTFPKYSMGWYRQAPGKERELVARISYSGASTYYADSVKGRFTISRDNEKNTVYLHMIILKPEDTAVYYCDARIYRVYYVNFAPYYYWGQGTQVTVSS | high polyreactivity |
| QVQLVESGAGLVQAGGRLRLSCAASGFTFYYNAMGWYRQAPGKEREFVAAISRSAGSTTYADSVKGRFTISRDNAKNTVYLQMNSLKPEDTAVYYCNARRSRGKSYDYWGQGTQVTVSS | high polyreactivity |
| QVQLVESGGGLVQAGGSLRLSCAASGSIFALYAIGWYRQAPGKEREFVAAISYNGGSTYYADSVKGRFTISRDNAKNTVYLQMNSLKPEDTAVYYCNDVYYDSGVVGYYYWGQGTQVTVSS | high polyreactivity |
| QVQLVESGGCLVQAGGSLRLSCAASGFTFYAYTMGWYRQAPGKERELVAAITKTGSRTYYADSVKGRFTISRDNAKNTVYLQMNSLKPEDTAVYYCAAASYIRVKGISRYDSWGQGTQVTVSS | high polyreactivity |
| QVQLVESGGGLVQAGGSLRLSCAASGIIFPWSTMGWYRQAPGKERELVAAISSGGRTNYADSVKGRFTISRDNAKNTVYLQMNSLKPEDTAVYYCAAKYYRDRDWGQGTQVTVSS | high polyreactivity |
| QVQLVESGGGLVQAGGRLRLSCAASGFTYPEYAMGWYRQAPGKEMELVAAIDSGDGSTYYADSVKGRFTISRDNAKNTVYLQMISLKPEDTAVYYCATDRYPHSATPGDYWGQGTQVTVSS | low polyreactivity |
| QVQLVESGGGLVQAGGSLRLSCAASGSTFWYYTMGWYRQAPGKERELVAGITSGGSTYYADSVKGRFTISRDNAKNTVYLQMNSLKPEDTAVYYCAKRYYGRGYYYWGQGTQVTVSS | high polyreactivity |
| QVQRVESGLGLVQAGCSLRLTCAASGRIFDGYAMGWYRPARGKERELVATISSGGFTYYADSVKGSFTISRDNAKNTFYLQMNILKPEDTAVYYCAATPICSGGWGDYWGQGTQVTVSS | low polyreactivity |
| QVQIVESGGGLVQAGGSLRVSCAASGRTFSWYAMGWYRQARGKEWEIVAAIRWSGSSTYYADSVKGRFTISRDNAKNTVYLQMNSLKPEDTAVYYCAVAAGIPQRRYYYWGQGTQVTVSS | high polyreactivity |
| QVQLVESGGGLVQAGGSLRLSCAASGYIFRGYVMGWYRQAPGKERELVAAISYGDGGTYYADSVKGRFTLSRDNAKNTVYLQMNSLKPEDTAVYYCAAPPYSFWGDYYSAGYYYWGQGTQVTVSS | low polyreactivity |
| QVQLVESGGGIVQAGGSLRLSCAASGPIFGSYALRWARQAPGKERELVAAITRSGGSTYYADSVKGRFTISRDNAKNTVYLQMNILKPEDTAVYYCAAYFSFSGSAKFGYWGQGTQVTVSS | high polyreactivity |
| QVQLVESGGGLVQAGGSLRLSCAASGSIFDSNAMGWYRQAPGKERELVAAINRSDASTYYADSVKGRFTISRDNAKNTDYLQMTSPQPEGTAVYYCGVEVYVYNVHIYDYWGQGTQVTVSS | low polyreactivity |
| QVQLVESGGGLVQAGGSLRLSCAASGFIFYEYDMGWYRQAPGKEGELVAAISVSGGSTYYADSVKGRFTISRDNAKNTVYLQMNSLKPEDTAVYYCAVFLPDYGRYDYWGQGTQVTVSS | low polyreactivity |
| QVQLEESGGGLVQAGGSLRLSCAASGRIFGYYPMGWYRQATGKERELVAGISRSGGSTYYADSVKGRFTISRDNAKNTVFLQMISLKPEDTAVYYCAKRVSYYGRYRPYDYWGQGTQVTVSS | high polyreactivity |
| QVQLQESGGGLVQAGGSLRLSCAASGNIFEADIMGWNHQAQGKERELVASITDGGSTNYADSVKGRFTINRDNAKNNVYLQMNSLKPEDTAVYYCAAFAYPDIPTYFDYDIFTYWGQGTQVTVSS | high polyreactivity |
| QVQLVESRGGLVQAGGSLRLSCAASGFIFVSYTMGWYRQAPGKERDLVATITLSDGSTYYADSVQGRFTISRDNAKNTVYLQMNSLKPEDTAVYSGNKDKVVVRYDYWGQGTQVTVSS | low polyreactivity |
| QVQLVESGGGLVQAGGSLRLSCAASGSTSQVNDMGWYRQAPGKERELVAAISSTGDRTYYADSVKGRFTISRDNAKNTVYLQMNSLKPEDTAVYYCNADLTSYYEEDERNDDDYWGQGTQVTVSS | low polyreactivity |
| QVQLVESGVGLVQAGGSLRLSCAASGSIFQYNAMGWYRQAPGKERELVAAITSTGDTNYADSVKGRFTISRDNAKNTVYLQMNSLKAEDTAVYFCAADVYGTVRRVGWYYVGEGYDYWGQGTQVTVSS | low polyreactivity |
| QVQLVESGGGLVQAGGSLRLSCAASGLTFSRYAMGWYRQAPGKERELVAAITWSGSSTYYADSVKGRFTISRDNAKNTVYLQMNSLKPEDTAVYYCAARYGYSRGPYYRSDYWGQGTQVNVSS | high polyreactivity |
| QVQLVESGGGLVQAGGSLRLSCAASGRTFYYYAMGWYRQAPGKEREFVASISYSGARTYYADSVKGRFTISRDNAKNTVYLQVNSLKPEDTAVYYCDAGYPLGGDYWGQGTQVTVSS | high polyreactivity |

| Sequence | polyreactivity (PSR sort gate) |
| --- | --- |
| QVQLVESGGGLVQAGGSLRLSCAASGNIFYYYAMGWYRQAPGKERELVADITSGGDTDYADSVKGRFTISRDNAKNTVYLQMNSLKPEDTAVYYCNAEYYFHVTYDYWGQGTQVTVSS | low polyreactivity |
| QVQLLESGGGLVQAGGSLRLSCAASGRIFHYNAMGWYRQAPGKERELVAAITRRGTSTYYADSVKGRFTISRDNAKNTVYLQMNSLKPEDTAVYYCNTDTYYRLLDYWGQGTQVTVSS | low polyreactivity |
| QVQLVESGGGLVQAGGSLRLSRAASGSIFKYYAMGWYRQAPGKERELVAAITYSGGSTFYADSVKGRFTISRDNAKNTVYLQMNSLKPEDTAVYYCNKVYKSYYWGGYDWGQGTQVTVSS | high polyreactivity |
| QVQLVESGGGLVQAGGSLRLSCAASGITFKRYAMGWYRQAPGKESELVATITWRDGSTYYADSVKGRFTISRDNAKNTVYLQMNSLKPEDTAVYYCAVAAYSRRSPYYHYNYWGQGTQVTVSS | high polyreactivity |
| QVKLVESGGGVVQAGGSLSLSCAASGRIFGGNAMGWYRQAPGKERELVAAISRTGGSTYYADSVKGRFTISRDIAKNTVYLQMNSLKPEDTAVNYCNAVYRYAHPMEYWGQGTQVTVSS | high polyreactivity |
| QVQLVESGGGLVQAGGSLRLSCAASGFIFRDNAMGWYRQAPGKERELVAAISKSGGRTYYADSVKGRFTISRDNAKNTVYLLMNSLKPEDTAVYYCAADTYYNLGNYWGQGTQVTVSS | high polyreactivity |
| QVQLVESGGGLVQAGGSLRLSCAASGRIFYSYARGWYRQAPGKERELVAAITESGGSTNYADSVKGRFTISRDNAKNSVYLQMNSLKPEDSAVYYCNARYKLTFNLYNYRGQGTQVTVSS | low polyreactivity |
| QVQLVESGGGLVQAGGSLRLSCAASVSIMARNAMVWYRQAPGKERELVAAISNSGSTNYADSVKGRFTISRDNAKNTVYLQMNSLKPEDTAVYYCAKDADHGWFEYDYWGQGTQVTVSS | low polyreactivity |
| QVQLEESGVGLVQAGGSLRLSCAASGFIFSFYAMGWSRQAPGKERELVAVISKSGGSTYYADSVKGRFTISRDNAKNTVYLQMNSLKPEDTAVYFCAADSTVGRLLSFDYWGQGTQVTVSS | low polyreactivity |
| QVQLVESGGGLVQAGGSLRLSCAASGSTLSFNAMGWYRQAPGKERELVAGITYSGASTYYADSVKGRFTISRDNAKNTVYLQMNSLKPEDTAVYYCAADSPYQIYYYWGQGTQVTVSS | low polyreactivity |
| QVQLVESGGGLVQAGGSLRLSCAACGFTIRRYAKGWYRQAPGKERELVAAITTGGSTYYADSVKGRFTISRDNAKNTVYFQMNSLKPEETAVYDCAALYPYKQYRLGYDSWGQGTQVTVSS | high polyreactivity |
| QVQLVESGGGLVQAGGSLRLSCAASGLIFRWYAMGWYRQAPGKEREMVAAITSGGTTNYADSVTGRFTISRDNAKNTVYFQMNSLKPEHSAVYSCNAIVLSYSRYDYWGQGTQVTVSS | high polyreactivity |
| QVQLVESGGGLVQAGGSLRLSCAASGSIFGRYAMGWYRQAPGKERELVAAISANGGSTYYADSVKGRFTISRDNAKNTVYLQMNSLKPEDTAVYYCAAGSTRGYKLGYWGQGTQVTVSS | high polyreactivity |
| QVQLVESGGGLVQAGGSLRLSCAASGSTLSDNAMGWYRQAPGKERELVARISGDGSTNYADSVKGRFTISRDNAKNTVYLQMNSLKPEDTAVYYCNAGTAGIYYYGKSDYWGQGTQVTVSS | low polyreactivity |
| QVQLVESGGGLVQAGGSLRLSCAASGFTFGIYAMGWYRPATVKERELVAAISSSGGSTYYADSVKGRFTISRDNAKHTVYLQMNSLKPEDTAVYYCNAGALYRVYPYRGKLAYITYDSWGQGTQVTVSS | high polyreactivity |
| QVQLVETGGGLVQAGGSLRLSCAASGRTFVGNAKGWYRPAPGQERELVADITWSGDITYYADSVKGRFTISRDHAKNSVYLQMNSLKPEDTAVYYCAADYHRRRTDYDYWGQGTQVTVSS | low polyreactivity |
| QVQLVESGGGLVQAGGSLRLSCAASGIIFVENAMGWYRQAPGKERELVAAISWDGGSTYYADSVKGRFTISRDNAKNTVYLQMNSLKPEDTAVYYCAADLTISYSQEYYYWGQGTQVTVSS | low polyreactivity |
| QVQLVESGGGLVQAGGSLRLSCAATGLIFRSYAMGWYRQAPGKDRELVARISIRGGSTYYADSVKGRFTISRDNAKNTGSLQMNSLKPEDTAVYYCAAVGSFRGYRYDYWGQGTQVTVSS | high polyreactivity |
| QVQLVESGGGLVQAGGSLRLSCAASGRIFKRNAMGWYRQAPGKERELVAAISSGTSTNYADSVKGRFTISRDNAKNTVYLQMNSLKPEDTAVYYCAVRPVDYRGYYYWGQGTQVTVSS | high polyreactivity |
| QVQLVESGGGLDQAGGSLRLSCAASGSTFDGYAMGWYRRAPGKERELVAAITSSDGSTYYADSVKGRFTISRDNAKHTVYLQMYSLKPEDTAVYYCAAAPDWKDSLPPDMDYWGQGTQVSVSS | low polyreactivity |
